# In publication doi:10.1101/465575 (bioRxiv, 2018):
# Substitutions are numbered along the chain they refer to.
# T1: Rv0081-S/Q-A S48A;S49A;S52A;Q53A (Mycobacterium tuberculosis) (UniProt P9WMI7)
# T1 sequence: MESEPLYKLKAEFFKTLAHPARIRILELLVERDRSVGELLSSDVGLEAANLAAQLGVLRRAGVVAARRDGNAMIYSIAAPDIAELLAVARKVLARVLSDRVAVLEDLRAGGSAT
# B1: Rv0081 transcription factor of Mycobacterium tuberculosis (natural protein)
# chain: T1 sequence with A48S, A49S, A52S, A53Q
# Assays:
# [1] = biological target: T1, Rv0081-S/Q-A S48A;S49A;S52A;Q53A (Mycobacterium tuberculosis); assay: SPR
# SEC-MALS = biological target: the molecule itself; assay: SEC-MALS
Molecule,Kd [1] [µM],stoichiometry N (SEC-MALS)
ATCCGCACTATCTGATAAATTCTTCAACTCGTC (double strand) [ds-Wt],19.6,–
B1,–,2
